# T1: full length C57BL/6 mouse SIRPα stably expressed on CHOK1 cells (mouse (C57BL/6), UniProt P97797 32-513)
# T1 construct: whole, on cells; also called CHOK1-C57BL/6 mouse SIRPα-2.22 cells
# T1 sequence (looked up): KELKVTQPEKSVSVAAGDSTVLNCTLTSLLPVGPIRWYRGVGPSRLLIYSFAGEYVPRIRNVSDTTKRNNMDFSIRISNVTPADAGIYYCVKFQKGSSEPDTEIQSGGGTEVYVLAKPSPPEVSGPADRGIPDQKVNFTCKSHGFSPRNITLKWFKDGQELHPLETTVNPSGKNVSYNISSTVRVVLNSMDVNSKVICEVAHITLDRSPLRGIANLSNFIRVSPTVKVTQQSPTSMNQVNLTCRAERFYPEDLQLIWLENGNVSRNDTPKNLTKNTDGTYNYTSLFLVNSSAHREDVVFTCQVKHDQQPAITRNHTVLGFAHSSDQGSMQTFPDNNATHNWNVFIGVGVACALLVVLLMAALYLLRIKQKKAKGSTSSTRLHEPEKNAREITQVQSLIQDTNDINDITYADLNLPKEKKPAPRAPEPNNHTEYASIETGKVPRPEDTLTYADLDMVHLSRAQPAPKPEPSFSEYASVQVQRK
# T2: full length cyno SIRPα stably expressed on CHOK1 cells (cynomolgus monkey, UniProt A0A2K5VYQ9 31-507)
# T2 construct: whole, on cells; also called CHOK1-cyno SIRPα-2A2 cells; CHOK1-cyno SIRPα
# T2 sequence: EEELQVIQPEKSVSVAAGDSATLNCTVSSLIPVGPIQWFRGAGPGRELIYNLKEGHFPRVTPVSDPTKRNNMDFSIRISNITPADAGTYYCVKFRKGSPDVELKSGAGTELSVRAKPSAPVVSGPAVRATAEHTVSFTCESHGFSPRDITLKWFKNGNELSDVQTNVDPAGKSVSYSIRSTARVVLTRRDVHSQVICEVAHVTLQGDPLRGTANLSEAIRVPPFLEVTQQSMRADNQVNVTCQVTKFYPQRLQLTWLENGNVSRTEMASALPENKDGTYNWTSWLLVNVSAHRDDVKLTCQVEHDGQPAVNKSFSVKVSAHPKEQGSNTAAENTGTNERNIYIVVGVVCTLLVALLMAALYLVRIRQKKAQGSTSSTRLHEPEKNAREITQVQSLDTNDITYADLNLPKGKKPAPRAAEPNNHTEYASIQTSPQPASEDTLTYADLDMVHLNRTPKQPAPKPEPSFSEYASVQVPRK
# Experiments:
# [1] = target: T3, Fc tagged human SIRPα v2 ECD recombinant protein (human); assay: ELISA
# T3 construct: range 1-369; cloned range M1-R369 includes the signal peptide; also called hSIRPα V2
# In short: (§1)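 Read-out: OD 450 nm after TMB development (15 min, RT) and 1N HCl stop; EC₅₀ calculated. Antibodies bound to coated antigen 1 h at 37° C., detected via HRP anti-mouse/anti-human IgG secondary, 1 h at 37° C.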
# [2] = target: T4, Fc tagged human SIRPβ ECD recombinant protein (human, UniProt O00241 30-371); assay: ELISA
# T4 construct: range 1-371; cloned range includes the signal peptide; also called hSIRPβ; not shown: human IgG Fc region (hFc) of the pCPC vector
# In short: as §1
# [3] = target: T1, full length C57BL/6 mouse SIRPα stably …; assay: FACS on CHOK1 cells
# [4] = target: T2, full length cyno SIRPα stably expressed …; assay: FACS on CHOK1 cells
# [5] = target: T5, biotin labeled soluble human SIRPα v1 ECD recombinant protein (human, UniProt P78324 31-373, biotin labeled); assay: competitive ELISA; competitor KWAR23
# T5 construct: extracellular domain
# Procedure: (§2) Competitive ELISA assay was used for epitope binning of 9 functional antibodies. Briefly excessive competitor antibody and biotin labeled soluble human SIRPα v1 ECD recombinant protein were co-incubated with ELISA microplate coated antibody. After washing, HRP-SA was added and incubated at 37° C. for 1 hour. Then, […] of TMB solution (Biotechnology) was added. After incubation for 15 minutes at room temperature, the reaction was stopped by the addition of […] of 1N HCl. OD 450 nm was read. Competition ratio was calculated. The antibodies that can compete each other for binding to SIRPα have the similar binding epitope.
# [6] = target: T5, biotin labeled soluble human SIRPα v1 …; assay: competitive ELISA; competitor 002
# Procedure: as §2
# [7] = target: T5, biotin labeled soluble human SIRPα v1 …; assay: competitive ELISA; competitor 001
# Procedure: as §2
Binder,EC50 [1],EC50 [2],MFI at 2 ug/ml [3],EC50 [4],% Competition [5],% Competition [6],% Competition [7],MFI at 10 nM [4]
"chimeric antibody 035c (antibody, V domains shown) VH: QIQLVQSGPELRKPGETVKISCKASGYSFTNYAMNWVKQAPGKVLKWMGFINTYTGEPTYADDFKGRFAFSLETSASTAYLQINNLKNEDTATYFCTRTRGYYDFDGGAFDYWGQGTSLTVSS VL: DIVMTQSQKFMSTSIGDRVSVTCKASQNVGTHLAWYQQKPGQSPKALIFSASYRYIGVPDRFTGSGSGTDFTLTITNVQSEDLAEYFCQQYNTYPLTFGAGTKLELK",0.08 nM,0.08 nM,310 MFI,0.42 nM,,,,
"chimeric antibody 022c (antibody, V domains shown) VH: QIQLVQSGPELKKPGETVKISCKASGYTFTDYAMHWVKQAPGKGLKWMGWKNTETGESTYAEDFKGRFAFFLETSASTAYLQINNVKNEDTATYFCARGGYGSNYVMDYWGQGTSVIVSS VL: DIQMTQSSSSFSVSLGDRVTITCKASEDIYNRLAWYQQKPGNAPRLLISGATSLETGVPSRFSGSGSGKDYTLSITSLQTEDVATYYCQQYWNSPRTFGGGTKLEIK",0.11 nM,0.08 nM,,,,,,
"reference antibody KWAR23 (antibody, V domains shown) VH: EVQLQQSGAELVKPGASVKLSCTASGFNIKDYYIHWVQQRTEQGLEWIGRIDPEDGETKYAPKFQDKATITADTSSNTAYLHLSSLTSEDTAVYYCARWGAYWGQGTLVTVSS VL: QIVLTQSPAIMSASPGEKVTLTCSASSSVSSSYLYWYQQKPGSSPKLWIYSTSNLASGVPARFSGSGSGTSYSLTISSMEAEDAASYFCHQWSSYPRTFGAGTKLELK",0.09 nM,0.08 nM,,,95%,49%,85%,
"reference antibody 29-AM4-5 (antibody, V domains shown) VH: EVQLVESGGGLVQPGGSLRLSCAASGFNISYYFIHWVRQAPGKGLEWVASVYSSFGYTYYADSVKGRFTISADTSKNTAYLQMNSLRAEDTAVYYCARFTFPGLFDGFFGAYLGSLDYWGQGTLVTVSS VL: DIQMTQSPSSLSASVGDRVTITCRASQSVSSAVAWYQQKPGKAPKLLIYSASSLYSGVPSRFSGSRSGTDFTLTISSLQPEDFATYYCQQAVNWVGALVTFGQGTKVEIK",0.08 nM,0.08 nM,,,93%,94%,97%,37900 MFI

# Reference: patent US20210347908A1 (ELPISCIENCE SUZHOU BIOPHARMA, published 2021)
